# From US20200150041
# Tested on: SDM-25
# Sequence of MMP9 protease (chain, as listed by the source): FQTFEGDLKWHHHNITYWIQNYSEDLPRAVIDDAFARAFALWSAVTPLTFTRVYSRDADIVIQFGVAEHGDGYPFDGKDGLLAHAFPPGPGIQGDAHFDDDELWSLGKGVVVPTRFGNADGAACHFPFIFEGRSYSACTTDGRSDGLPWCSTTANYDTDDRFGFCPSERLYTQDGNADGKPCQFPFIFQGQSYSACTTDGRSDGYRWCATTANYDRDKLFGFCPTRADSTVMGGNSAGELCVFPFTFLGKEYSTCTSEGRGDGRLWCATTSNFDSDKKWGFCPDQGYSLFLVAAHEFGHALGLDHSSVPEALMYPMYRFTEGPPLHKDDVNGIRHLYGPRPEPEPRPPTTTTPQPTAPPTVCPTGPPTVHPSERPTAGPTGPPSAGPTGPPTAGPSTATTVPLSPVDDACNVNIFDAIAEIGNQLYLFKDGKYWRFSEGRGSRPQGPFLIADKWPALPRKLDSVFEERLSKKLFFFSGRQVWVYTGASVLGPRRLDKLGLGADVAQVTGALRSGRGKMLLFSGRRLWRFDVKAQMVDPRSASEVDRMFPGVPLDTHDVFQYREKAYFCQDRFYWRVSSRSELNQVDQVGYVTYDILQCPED
substance,measurement,value
MMP9 protease,fluorescence emission spectra (630 nm excitation) before and after protease treatment; FRET loss on cleavage,"After cleavage, Cy7 no longer quenches Cy5, resulting in an increase of the 670 nm Cy5 emission peak and a reduction of the Cy7 re-emission at 780 nm"
